Molecular target: 15N-labeled AR DBD (human, UniProt P10275 558-648)
Test: NMR

Chain of 15N-labeled AR DBD (P10275 558-648): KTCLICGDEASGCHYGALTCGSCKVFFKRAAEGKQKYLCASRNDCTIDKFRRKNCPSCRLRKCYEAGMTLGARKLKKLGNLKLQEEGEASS

B1: ADR3 DNA duplex (NMR) (dsDNA)
DNA 1: CCAGAACATCAAGAACAC
DNA 2: GTGTTCTTGATGTTCTGG
binding result: binds
